The source of these data is patent publication US8703907B2, “Controlled drug release from dendrimers” (Prolynx LLC, priority 2010, dated 2014).

The half-life is the time needed for the level to fall by half in the phase considered.

The nature of data set [1]: hydrolysis of carbamate in 50% human serum. To be noted: 1 week at 37° C. Type of data set: in vitro ADME. An excerpt: The half-lives for cleavage span 2 hr to >10 days. […] In general, compared to C—H, a) electron withdrawing groups at R^1 increase the rate; b) alkyl groups at R^3 increase the rate; and c) aryl moieties at R^3 decrease the rate.
The nature of data set [2]: β-eliminative cleavage of DNP-Lys carbamates (HPLC). Type of data set: physicochemical. To be noted: after 5 days at 37° C. and pH 7.4. As for the experimental part: A series of model linker scaffolds having a range of functional groups as potential pKa modulators (substituted aromatics, ketones, nitriles, sulfones) were designed, prepared and linked via carbamate bonds to Ne-2,4-dinitrophenyl-L-lysine (Ne-DNP-Lys) for evaluation of release rates; DNP-Lys is water soluble and is a strong chromophore to permit HPLC-UV analysis. Rates of release at pH 7.4 and/or 8.3 were determined.
The DNP carbamates were prepared as follows. A suspension of N-DNP-L-Lys HCl (35 mg, 0.1 mmol) in 600 μL of water was treated successively with 1.0 N NaOH (200 μL) and 1.0 M NaHCO3. A 0.1 M solution of the N—HS carbonate in acetonitrile (1.0 mL) was added to the stirred mixture to give a clear yellow solution. After 1 hr, the mixture was diluted with 10 mL water and loaded onto a Bond-Elut™ C18 extraction column (1 gm). The column was washed successively with water, 1% CF3CO2H/water, water, and 50% MeOH/water. The product was eluted with MeOH, then evaporated to give the product as a yellow glass. Kinetic analyses were performed by HPLC (C18; linear MeOH/water+0.5% HOAc gradient) using a UV/vis monitor. The areas under the DNP and starting material peaks were integrated to determine extent of reaction.
The half-lives for cleavage span 2 hr to >10 days. […]

In the next data set the test system is plasma proteases. To be noted: cited from earlier work.
The conditions of data set [3]: in vivo; cited from earlier work.
For the next data set, the target named is T1, GLP1 receptor (Rattus norvegicus, UniProt P32301).
T1 construct: in membrane or cell-based assays (e.g., RIN-m5f cells, ATCC); host or cells: RIN-m5f cells
T1 sequence (P32301 22-463): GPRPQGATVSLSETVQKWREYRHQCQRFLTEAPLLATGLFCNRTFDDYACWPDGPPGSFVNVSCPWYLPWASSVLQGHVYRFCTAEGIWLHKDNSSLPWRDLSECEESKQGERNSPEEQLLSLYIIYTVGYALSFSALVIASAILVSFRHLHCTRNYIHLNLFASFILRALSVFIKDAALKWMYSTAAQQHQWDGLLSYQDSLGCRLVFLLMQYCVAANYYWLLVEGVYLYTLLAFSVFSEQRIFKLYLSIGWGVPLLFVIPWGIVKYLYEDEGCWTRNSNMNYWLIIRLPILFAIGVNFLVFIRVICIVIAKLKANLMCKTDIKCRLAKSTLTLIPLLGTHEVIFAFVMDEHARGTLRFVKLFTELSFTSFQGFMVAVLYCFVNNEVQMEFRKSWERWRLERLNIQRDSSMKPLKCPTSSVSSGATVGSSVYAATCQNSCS
Description: GLP1 receptor agonism in membrane or cell-based assays after β-eliminative release. As to conditions: native exendin released by mild base. The procedure:
The PEG and PEG-dendrimer conjugates are tested as agonists of the GLP1 receptor in membrane or cell-based assays (e.g., RIN-m5f cells, ATCC as described (Young, A., et al., (2000) WO00/66629) pages 74-75) before and after β-eliminative release of native exendin.

For the molecule `O=C(N[C@@H](CCCCNc1ccc([N+](=O)[O-])cc1[N+](=O)[O-])C(=O)O)OCc1ccccc1` [O-benzyl-N—(Ne-2,4-DNP-Lys) carbamate], the “hydrolysis in 50% human serum” value in data set [1] was “no detectable hydrolysis”. In addition, in data set [2], the cleavage result was “less than 0.25%”.
Consider “Exendin-4: 39-amino acid peptide from the Gila monster, agonist of the GLP-1 receptor”, for which the “t1/2 against plasma proteases in vitro” value in the data set on plasma proteases was roughly 10 h. In addition, the half-life in data set [3] was 2.5 h. In addition, in the data set with GLP1 receptor, the “activity as GLP1 agonists” value was “full activity”.
For GLP-1: glucagon-like peptide 1, in data set [3], the plasma lifetime is on record as roughly 5 min.
